In US20220267415A1 (University of Texas, published 2022):

B1: anti-SARS-CoV2-14 IgM (full lambda light chain) (antibody)
heavy: EVQLQQSGPGLVKPSQTLSLTCAISGDSVSSNSAAWNWIRQSPSRGLEWLGRTYYRSKWYNDYAVSVKSRITINPDTSKNQFSLQLNSVTPEDTAVYYCAREEQQLVHDYYYYGMDVWGQGTMVTVSSGSASAPTLFPLVSCENSPSDTSSVAVGCLAQDFLPDSITFSWKYKNNSDISSTRGFPSVLRGGKYAATSQVLLPSKDVMQGTDEHVVCKVQHPNGNKEKNVPLPVIAELPPKVSVFVPPRDGFFGNPRKSKLICQATGFSPRQIQVSWLREGKQVGSGVTTDQVQAEAKESGPTTYKVTSTLTIKESDWLSQSMFTCRVDHRGLTFQQNASSMCVPDQDTAIRVFAIPPSFASIFLTKSTKLTCLVTDLTTYDSVTISWTRQNGEAVKTHTNISESHPNATFSAVGEASICEDDWNSGERFTCTVTHTDLPSPLKQTISRPKGVALHRPDVYLLPPAREQLNLRESATITCLVTGFSPADVFVQWMQRGQPLSPEKYVTSAPMPEPQAPGRYFAHSILTVSEEEWNTGETYTCVVAHEALPNRVTERTVDKSTGKPTLYNVSLVMSDTAGTCY
light: QAVVTQPASVSGSPGQSITISCTGTSSDIGAYNYISWYQQHPGKAPKLIIYEVSNRPSGISYRFSGSKSGNTASLTISGLQAEDEANYYCSSYAGSISFGGGTKVTVLGQPKAAPSVTLFPPSSEELQANKATLVCLISDFYPGAVTVAWKADSSPVKAGVETTTPSKQSNNKYAASSYLSLTPEQWKSHRSYSCQVTHEGSTVEKTVAPTECS
chain: not shown
B2: anti-SARS-CoV2-14 IgG (full lambda light chain) (antibody, V domains shown)
VH: EVQLQQSGPGLVKPSQTLSLTCAISGDSVSSNSAAWNWIRQSPSRGLEWLGRTYYRSKWYNDYAVSVKSRITINPDTSKNQFSLQLNSVTPEDTAVYYCAREEQQLVHDYYYYGMDVWGQGTMVTVSS
VL: QAVVTQPASVSGSPGQSITISCTGTSSDIGAYNYISWYQQHPGKAPKLIIYEVSNRPSGISYRFSGSKSGNTASLTISGLQAEDEANYYCSSYAGSISFGGGTKVTVL

What was measured:
[1] = target: B.1.526 Iota variant spike protein on recombinant USA-WA1/2020 virus (SARS-CoV-2); assay: cell-based or functional assay
[2] = target: T1, wild type RBD protein (generated as in Ku et al. 2021) (SARS-CoV-2, UniProt P0DTC2 319-541); assay: binding KD on RBD protein, generally as Example 4
[3] = target: T1, wild type RBD protein (generated as in …); assay: BLI competition, RBD on sensor, antibody then ACE2; competitor ACE2
[4] = target: T1, wild type RBD protein (generated as in …)

Row | Binder | Fold-Increase in potency of IgM over IgG [1] | Neutralization EC50 (PRNT) [1] | Kd [2] | EC50 [3] | EC50 (read off the curve) [4]
1 | B1 | 5300 fold | 0.032 µg/mL | < 0.001 nM | 0.86 nM | ~0.9 nM
2 | B2 | – | 170 µg/mL | – | – | –
